Data taken from article PMC10585736 (2023).

B1: Pol30p (PCNA), wild type, of the POL30-0 strain [S. cerevisiae] / Rrm3p-Myc [S. cerevisiae] (parent complex)
chain 1: MLEAKFEEASLFKRIIDGFKDCVQLVNFQCKEDGIIAQAVDDSRVLLVSLEIGVEAFQEYRCDHPVTLGMDLTSLSKILRCGNNTDTLTLIADNTPDSIILLFEDTKKDRIAEYSLKLMDIDADFLKIEELQYDSTLSLPSSEFSKIVRDLSQLSDSINIMITKETIKFVADGDIGSGSVIIKPFVDMEHPETSIKLEMDQPVDLTFGAKYLLDIIKGSSLSDRVGIRLSSEAPALFQFDLKSGFLQFFLAPKFNDEE
chain 2: MFRSHASGNKKQWSKRSSNGSTPAASASGSHAYRQQTLSSFFMGCGKKSAAASKNSTTIIDLESGDEGNRNITAPPRPRLIRNNSSSLFSQSQGSFGDDDPDAEFKKLVDVPRLNSYKKSSRSLSMTSSLHKTASASTTQKTYHFDEDETLREVTSVKSNSRQLSFTSTINIEDSSMKLSTDSERPAKRSKPSMEFQGLKLTVPKKIKPLLRKTVSNMDSMNHRSASSPVVLTMEQERVVNLIVKKRTNVFYTGSAGTGKSVILQTIIRQLSSLYGKESIAITASTGLAAVTIGGSTLHKWSGIGIGNKTIDQLVKKIQSQKDLLAAWRYTKVLIIDEISMVDGNLLDKLEQIARRIRKNDDPFGGIQLVLTGDFFQLPPVAKKDEHNVVKFCFESEMWKRCIQKTILLTKVFRQQDNKLIDILNAIRYGELTVDIAKTIRNLNRDIDYADGIAPTELYATRREVELSNVKKLQSLPGDLYEFKAVDNAPERYQAILDSSLMVEKVVALKEDAQVMMLKNKPDVELVNGSLGKVLFFVTESLVVKMKEIYKIVDDEVVMDMRLVSRVIGNPLLKESKEFRQDLNARPLARLERLKILINYAVKISPHKEKFPYVRWTVGKNKYIHELMVPERFPIDIPRENVGLERTQIPLMLCWALSIHKAQGQTIQRLKVDLRRIFEAGQVYVALSRAVTMDTLQVLNFDPGKIRTNERVKDFYKRLETLK

Variants of: B1
Experiment: co-immunoprecipitation, western blot band quantification; α-Myc IP; parent: 2.1; read off a plot

response | Variant
~1.8 pixel density fold over input signal | chain 1 L126A, chain 1 I128A
